These results are taken from the supplement of paper PMC10567573.

The chains are these.
B1: YPEL3 (parent)
chain: SKPKTFQAYLDDCHRRYSCAHCRA
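Note: lentivirally expressed fusions sorted by FACS into six bins by GFP to DsRed ratio, PSI derived from sequencing read proportions per bin multiplied by bin number.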

In this series the parent is B1. Kind of series: protein stability index of a GFP-peptide fusion (GPS, HEK-293T) (PSI 1-6); higher = more stable. The settings on record: c terminus: a fixed tail appended.
As to SKPKTIQAYLDDCHRRYSCAHCRA, the protein stability index came out at 2.17.

On to SKPKTTQAYLDDCHRRYSCAHCRA, for which the protein stability index stood at 3.23. To SKPKTPQAYLDDCHRRYSCAHCRA belongs 2.96. In the case of SKPKTHQAYLDDCHRRYSCAHCRA it was 2.71. As to SKPKTRQAYLDDCHRRYSCAHCRA, the protein stability index was 3.21. Take SKPKTGQAYLDDCHRRYSCAHCRA: the protein stability index worked out at 3.57. To SKPKTQQAYLDDCHRRYSCAHCRA belongs 3.21. As to SKPKTDQAYLDDCHRRYSCAHCRA, the protein stability index is 3.54. To SKPKTMQAYLDDCHRRYSCAHCRA belongs 2.94; to SKPKTVQAYLDDCHRRYSCAHCRA, 2.81.

On to SKPKTFQAVLDDCHRRYSCAHCRA, for which the protein stability index amounted to 2.41.

For the variant SKPKTFQAKLDDCHRRYSCAHCRA, the protein stability index came to 1.93. To SKPKTFQAPLDDCHRRYSCAHCRA belongs 3.08. For SKPKTFQAILDDCHRRYSCAHCRA, the protein stability index stood at 2. Turning to SKPKTFQAQLDDCHRRYSCAHCRA, the protein stability index was 2.45. Consider SKPKTFQAWLDDCHRRYSCAHCRA, for which the protein stability index was found to be 1.93. Take SKPKTFQAGLDDCHRRYSCAHCRA: the protein stability index was determined as 2.85. To SKPKTFQALLDDCHRRYSCAHCRA belongs 1.96. In the case of SKPKTFQADLDDCHRRYSCAHCRA, the protein stability index was 2.38. Consider SKPKTFQAALDDCHRRYSCAHCRA, for which the protein stability index turned out to be 2.19. In the case of SKPKTFQANLDDCHRRYSCAHCRA it was 2.17; in that of SKPKTFQAHLDDCHRRYSCAHCRA, 1.88. To SKPKTFQAMLDDCHRRYSCAHCRA belongs 1.89. Consider SKPKTFQAELDDCHRRYSCAHCRA, for which the protein stability index worked out at 3.

For SKPKTFQATLDDCHRRYSCAHCRA, the protein stability index is 1.52. As for SKPKTFQASLDDCHRRYSCAHCRA, the protein stability index stood at 1.4.

On to SKPKTFQARLDDCHRRYSCAHCRA, for which the protein stability index was determined as 1.94.

Turning to SKPKTFQAFLDDCHRRYSCAHCRA, the protein stability index came out at 2.67. In the case of SKPKTFQACLDDCHRRYSCAHCRA it was 2.33; in that of SKPKTFQAYLDDCHARYSCAHCRA, 2.1.

Turning to SKPKTFQAYLDDCHFRYSCAHCRA, the protein stability index was determined as 2.07.

Turning to SKPKTFQAYLDDCHCRYSCAHCRA, the protein stability index stood at 2.72. In the case of SKPKTFQAYLDDCHIRYSCAHCRA, the protein stability index amounted to 2.25. On to SKPKTFQAYLDDCHHRYSCAHCRA, for which the protein stability index was found to be 2.72. To SKPKTFQAYLDDCHDRYSCAHCRA belongs 2.67. SKPKTFQAYLDDCHGRYSCAHCRA: the protein stability index amounted to 1.88.

Take SKPKTFQAYLDDCHERYSCAHCRA: the protein stability index is 3.59. On to SKPKTFQAYLDHCHRRYSCAHCRA, for which the protein stability index stood at 2.35.

Consider SKPKTFQAYLDQCHRRYSCAHCRA, for which the protein stability index is 2.01.

SKPKTFQAYLDKCHRRYSCAHCRA: the protein stability index came out at 2.9. To SKPKTFQAYLDRCHRRYSCAHCRA belongs 2.4. Turning to SKPKTFQAYLDSCHRRYSCAHCRA, the protein stability index was 2. As to SKPKTFQAYLDFCHRRYSCAHCRA, the protein stability index was determined as 1.7.

As for SKPKTFQAYLDICHRRYSCAHCRA, the protein stability index is 2.22. SKPKTFQAYLDVCHRRYSCAHCRA: the protein stability index was 1.96. Take SKPKTFQAYLDLCHRRYSCAHCRA: the protein stability index was 2.34. Turning to SKPKTFQAYLDMCHRRYSCAHCRA, the protein stability index amounted to 2.69. Consider SKPKTFQAYLDWCHRRYSCAHCRA, for which the protein stability index was determined as 1.67. As to SKPKTFQAYLDECHRRYSCAHCRA, the protein stability index was 2.36. In the case of SKPKTFQAYLDACHRRYSCAHCRA, the protein stability index was 2.19. To SKPKTFQAYLDPCHRRYSCAHCRA belongs 2.57; to SKPKTFQAYLDGCHRRYSCAHCRA, 2.64; to SKPKTFQAYLDTCHRRYSCAHCRA, 2.35.

For SKPKTFQAYLDCCHRRYSCAHCRA, the protein stability index worked out at 2.74. For SKPKTFQAYLDYCHRRYSCAHCRA, the protein stability index was determined as 2.28. Regarding SKPKTFQAYLDNCHRRYSCAHCRA, the protein stability index stood at 2.12.

For the variant SKPKTFQAYLDDEHRRYSCAHCRA, the protein stability index was 1.78. On to SKPKTFQAYLDDPHRRYSCAHCRA, for which the protein stability index came to 1.68. On to SKPKTFQAYLDDTHRRYSCAHCRA, for which the protein stability index is 2.01. On to SKPKTFQAYLDDVHRRYSCAHCRA, for which the protein stability index was found to be 2.54.

For SKPKTFQAYLDDLHRRYSCAHCRA, the protein stability index turned out to be 2.12. With SKPKTFQAYLDDDHRRYSCAHCRA, the protein stability index came to 1.99. Consider SKPKTFQAYLDDWHRRYSCAHCRA, for which the protein stability index worked out at 1.71. Regarding SKPKTFQAYLDDNHRRYSCAHCRA, the protein stability index worked out at 2.27. As to SKPKTFQAYLDDHHRRYSCAHCRA, the protein stability index came out at 1.75.

For SKPKTFQAYLDDMHRRYSCAHCRA, the protein stability index was 2.79.

For SKPKTFQAYLDDFHRRYSCAHCRA, the protein stability index was found to be 2.1. Regarding SKPKTFQAYLDDAHRRYSCAHCRA, the protein stability index was determined as 1.8. In the case of SKPKTFQAYLDDYHRRYSCAHCRA it was 2.44; in that of SKPKTFQAYLDDGHRRYSCAHCRA, 2.07; in that of SKPKTFQAYLDDQHRRYSCAHCRA, 2.48. SKPKTFQAYLDDSHRRYSCAHCRA: the protein stability index worked out at 2.25. SKPKTFQAYLDDRHRRYSCAHCRA: the protein stability index was 2.19.

Consider SKPKTFQAYLDDKHRRYSCAHCRA, for which the protein stability index was found to be 2.69. Turning to SKPKTFQAYLDDIHRRYSCAHCRA, the protein stability index turned out to be 1.94. In the case of SKPKTFQAYFDDCHRRYSCAHCRA it was 1.99. SKPKTFQAYMDDCHRRYSCAHCRA: the protein stability index came to 1.75.

For SKPKTFQAYIDDCHRRYSCAHCRA, the protein stability index was 2.41. To SKPKTFQAYVDDCHRRYSCAHCRA belongs 1.57; to SKPKTFQAYNDDCHRRYSCAHCRA, 2.62. Consider SKPKTFQAYQDDCHRRYSCAHCRA, for which the protein stability index was 2.48.

On to SKPKTFQAYKDDCHRRYSCAHCRA, for which the protein stability index worked out at 2.94. On to SKPKTFQAYYDDCHRRYSCAHCRA, for which the protein stability index worked out at 1.97. With SKPKTFQAYCDDCHRRYSCAHCRA, the protein stability index was found to be 3.6. To SKPKTFQAYSDDCHRRYSCAHCRA belongs 2.8.

Take SKPKTFQAYTDDCHRRYSCAHCRA: the protein stability index was 2.14. With SKPKTFQAYADDCHRRYSCAHCRA, the protein stability index amounted to 2.54.

As for SKPKTFQAYDDDCHRRYSCAHCRA, the protein stability index is 2.53. As to SKPKTFQAYPDDCHRRYSCAHCRA, the protein stability index came to 2.79. For SKPKTFQAYRDDCHRRYSCAHCRA, the protein stability index came out at 2.62. To SKPKTFQAYGDDCHRRYSCAHCRA belongs 2.79; to SKPKTFQAYWDDCHRRYSCAHCRA, 2.05.

Consider SKPKTFQAYHDDCHRRYSCAHCRA, for which the protein stability index was 3.32.

Consider SKPKTFQAYEDDCHRRYSCAHCRA, for which the protein stability index was determined as 3.4.
